One data set has as its target T1, HNRNPH1 full-length (UniProt P31943 1-449).
T1 sequence: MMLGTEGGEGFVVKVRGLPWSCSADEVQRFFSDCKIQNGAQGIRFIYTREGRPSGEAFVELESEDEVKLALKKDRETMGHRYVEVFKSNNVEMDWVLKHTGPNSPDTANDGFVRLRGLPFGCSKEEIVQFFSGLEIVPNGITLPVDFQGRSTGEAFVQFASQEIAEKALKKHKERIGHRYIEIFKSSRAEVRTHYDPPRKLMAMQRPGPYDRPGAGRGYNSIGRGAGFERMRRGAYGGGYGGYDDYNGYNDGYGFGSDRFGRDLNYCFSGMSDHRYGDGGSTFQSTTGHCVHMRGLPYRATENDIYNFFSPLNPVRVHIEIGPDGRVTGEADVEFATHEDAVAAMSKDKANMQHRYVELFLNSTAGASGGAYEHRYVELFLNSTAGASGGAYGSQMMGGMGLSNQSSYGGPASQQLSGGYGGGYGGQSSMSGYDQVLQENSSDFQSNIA
Description: BLI; 150 mM KCl (G4); BLI: 10 mM Tris-HCl pH 7.4, 150 mM KCl, 0.005% P-20, 1 mM EDTA; EMSA: 10 mM Tris-HCl pH 7.4, 1 mM EDTA, 150 mM KCl, room temp, 3 nM RNA; FRET: same Tris/EDTA with 25 mM KCl, room temp. The conditions noted are these: protein: recombinant, tags: FLAG, label: 5'-biotin.

Another data set has as its target T2, HNRNPF (UniProt P52597 1-415).
T2 sequence: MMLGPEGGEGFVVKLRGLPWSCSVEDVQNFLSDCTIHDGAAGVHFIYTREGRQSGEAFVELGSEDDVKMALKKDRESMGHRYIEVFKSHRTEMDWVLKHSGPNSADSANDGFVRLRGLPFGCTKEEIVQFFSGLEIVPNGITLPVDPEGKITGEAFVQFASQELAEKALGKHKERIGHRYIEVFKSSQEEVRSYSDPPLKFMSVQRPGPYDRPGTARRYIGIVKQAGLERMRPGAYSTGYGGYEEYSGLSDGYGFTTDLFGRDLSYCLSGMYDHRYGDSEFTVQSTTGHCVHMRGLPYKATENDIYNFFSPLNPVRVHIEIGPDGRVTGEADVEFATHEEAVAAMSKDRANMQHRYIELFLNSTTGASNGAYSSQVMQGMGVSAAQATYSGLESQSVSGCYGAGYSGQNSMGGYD
As to the kind of experiment: BLI; 150 mM KCl; BLI: 10 mM Tris-HCl pH 7.4, 150 mM KCl, 0.005% P-20, 1 mM EDTA; EMSA: 10 mM Tris-HCl pH 7.4, 1 mM EDTA, 150 mM KCl, room temp, 3 nM RNA; FRET: same Tris/EDTA with 25 mM KCl, room temp. The conditions noted are these: protein: recombinant; label: 5'-biotin; parallel two-tier G4, intramolecular. (In BLI a coated tip is dipped into the sample, and binding shifts an interference pattern.)

For the next data set, the target named is T3, HNRNPH1 qRRM1-2 (UniProt P31943 11-188).
T3 sequence: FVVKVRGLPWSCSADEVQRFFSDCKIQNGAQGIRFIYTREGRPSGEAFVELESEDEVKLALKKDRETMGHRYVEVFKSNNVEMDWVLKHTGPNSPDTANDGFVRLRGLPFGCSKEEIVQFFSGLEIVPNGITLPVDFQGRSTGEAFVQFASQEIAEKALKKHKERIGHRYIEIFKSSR
Described as above. The conditions noted are these: protein: recombinant; label: 5'-biotin; parallel two-tier G4, intramolecular.

The mark [1] stands for this setting: parallel two-tier G4, intramolecular.

Results on three molecules are retold here after publication doi:10.1101/2022.04.18.488656, “HNRNPH1 destabilizes the G-quadruplex structures formed by G-rich RNA sequences that regulate the alternative splicing of an oncogenic fusion transcript”.

On to GGUGGGCGGGGAGGAGGACGCGGUGGAAU (structured_RNA) [rG2], for which, in the data set with HNRNPH1 full-length (parallel two-tier G4), the Kd was determined as 3.1 ± 0.7 nM.

ACCGGGGCAGGGGAAGAGGGGGAUU (structured_RNA) [rG1]: the dissociation constant Kd in the data set with HNRNPF was 0.34 nM; with HNRNPH1 qRRM1-2 it was 6 ± 0.8 nM; with HNRNPH1 full-length (setting [1]) it was 1.08 ± 0.53 nM.

GGGCGGGGAGGAGGACGCGGUGGAAUGGG (structured_RNA) [rG3]: the Kd in the data set with HNRNPF stood at 0.35 nM; with HNRNPH1 qRRM1-2, 4 ± 0.7 nM; in the data set with HNRNPH1 full-length (setting [1]) it was 1.39 ± 0.54 nM.

As usually defined, the Kd is the free concentration of one partner at which half of the binding sites on the other are occupied at equilibrium, for simple one-to-one binding.
